# Test results published in patent publication US20260035447A1 (SCHOLAR ROCK, published 2026).
# T1: proGDF11 (Mus musculus, UniProt Q9Z1W4)
# T1 construct: The text calls it recombinant mouse GDF11 / rGDF11, and the sheet labels it '10x proGDF11'; also called recombinant mouse GDF11; rGDF11 (murine)
# T1 sequence (proprotein, looked up): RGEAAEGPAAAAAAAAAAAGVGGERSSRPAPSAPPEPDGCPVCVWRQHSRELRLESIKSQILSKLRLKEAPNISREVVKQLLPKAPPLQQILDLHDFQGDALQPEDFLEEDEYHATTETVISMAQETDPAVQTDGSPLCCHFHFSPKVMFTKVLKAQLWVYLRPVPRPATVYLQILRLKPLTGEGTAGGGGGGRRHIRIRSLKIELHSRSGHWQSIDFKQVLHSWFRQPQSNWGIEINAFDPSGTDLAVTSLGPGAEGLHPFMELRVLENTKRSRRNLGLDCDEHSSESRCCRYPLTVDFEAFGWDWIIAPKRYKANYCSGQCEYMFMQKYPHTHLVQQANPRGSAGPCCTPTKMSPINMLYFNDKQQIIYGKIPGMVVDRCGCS
# Target: T1, proGDF11
# Assay: recombinant protein absorption: Ab10 at 50 µg/mL pre-incubated overnight with 10-fold molar excess of recombinant mouse GDF11, then used as primary antibody for immunofluorescence on mouse tibialis anterior sections; read-out is retained tissue pro/latent GDF8 staining
# Protocol: Tibialis anterior (TA) muscles were fixed in ice cold 4% paraformaldehyde (EMS), PBS for 30 min, incubated overnight in 10% sucrose, PBS at 4° C., then incubated overnight in 20% sucrose, PBS. Muscles were then mounted on cork with tragacanth (Sigma) and frozen in liquid nitrogen cooled isopentane (Sigma) for cryosectioning. 10 μm sections of TA muscle were permeabilized with 0.1% Triton-X 100 (Sigma), PBS for 20 minutes, washed once with 0.05% Triton-X 100, PBS (PBS/T), and then incubated in Mouse IgG blocking reagent (Vector Lab) diluted at 1 drop per 1.5 mL PBS/T for 1 h. Sections were washed once with PBS/T and then incubated in 10% Normal Goat Serum (Sigma), 1% Blocking powder (Perkin Elmer), PBS/T (NGB) for 30 minutes at room temperature. Primary antibodies (Rabbit anti-laminin, 1:5000, Abcam; Ab10, […]; HuNeg, 50 μg/mL,) were diluted in NGB and applied to sections overnight at 4° C. Sections were washed 3 times with PBS/T, and then incubated in secondary antibodies (Alexa Fluor 488 conjugated Goat anti-Rabbit, 1:1000, Invitrogen; Alexa Fluor 594 conjugated Goat anti-Human IgG FCY, 1:500, Jackson ImmunoResearch) diluted in NGB for 1 h. Sections were then incubated in 350 nM DAPI (Thermo), PBS/T for 5 minutes, washed twice with PBS/T, and then mounted with Vectashield (Vector Laboratories). […]
binder,measurement,value
"anti-pro/latent GDF8 antibody, Ab10 (antibody, V domains shown, The VL as printed runs into the start of the lambda constant region) VH: EVQLVQSGGGVVQSGRSLRLSCVASGFSFSNYGMHWVRQAPGKGLEWLAFIWYDGSNKWYADSVKGRFTISRDNSKNALYLQMNSLRAEDTAVYYCARDRYSSSWGGGFDYWGQGTVLTVSS VL: NFMLTQPHSVSESPGRTVTIPCSGRGGSIASDSVQWYQQRPGSAPTTIIYEDNQRPSGVPDRFSGSVDSSSNSASLTISGLRTEDEADYYCQSYDASSLWVFGGKTKLTVLG",binding result,no binding
